Results reported in PMC7962484 (RNA, 2021).
Changes are numbered by the printed parent chain. Names may count otherwise. One block for each binder: values may come before it.

Tests used:
Nop1^83–321 = target: T1, Nop1^83–321 (S. cerevisiae, UniProt P15646 83-321); experiment: SEC
T1 sequence (looked up): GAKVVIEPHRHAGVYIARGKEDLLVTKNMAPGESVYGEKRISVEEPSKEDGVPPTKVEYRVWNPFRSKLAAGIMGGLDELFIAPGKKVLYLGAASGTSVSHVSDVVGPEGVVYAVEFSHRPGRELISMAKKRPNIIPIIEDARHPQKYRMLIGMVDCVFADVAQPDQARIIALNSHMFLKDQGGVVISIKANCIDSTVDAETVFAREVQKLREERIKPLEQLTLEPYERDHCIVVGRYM

Sc Nop1^83–327 = target: T2, Sc Nop1^83–327 (S. cerevisiae, UniProt P15646 83-327); experiment: SEC
T2 sequence (looked up): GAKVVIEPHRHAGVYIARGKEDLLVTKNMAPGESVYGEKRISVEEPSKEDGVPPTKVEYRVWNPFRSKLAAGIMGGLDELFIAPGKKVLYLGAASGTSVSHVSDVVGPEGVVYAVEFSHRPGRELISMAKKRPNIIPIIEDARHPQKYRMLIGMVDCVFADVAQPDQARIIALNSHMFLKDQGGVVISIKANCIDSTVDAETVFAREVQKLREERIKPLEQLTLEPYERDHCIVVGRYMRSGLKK

binding result (Nop1^83–321): binds
B1: Sc Nop56^1–166 (domain or fragment, S. cerevisiae, UniProt Q12460 1-166, looked up)
chain: MAPIEYLLFEEPTGYAVFKVKLQQDDIGSRLKEVQEQINDFGAFTKLIELVSFAPFKGAAEALENANDISEGLVSESLKAILDLNLPKASSKKKNITLAISDKNLGPSIKEEFPYVDCISNELAQDLIRGVRLHGEKLFKGLQSGDLERAQLGLGHAYSRAKVKFS

binding result (Sc Nop1^83–327): binds
B2: Nop56^1–166-Q35A/N39A (domain or fragment, S. cerevisiae, UniProt Q12460 1-166, looked up)
chain: B1 chain with Q35A, N39A

binding result (Sc Nop1^83–327): binds
B3: Sc Nop56^1–166-L147W/E148F (domain or fragment, S. cerevisiae, UniProt Q12460 1-166, looked up)
chain: B1 chain with L147W, E148F
